Data published in patent US20140314775A1 (ADRENOMED, published 2014).

What was measured:
[1] = target: T1, human Adrenomedullin (hADM 1-52) (human, not fully specified; C-terminal amide (printed as PRSKISPQGY-NH2 for aa 43-52 of ADM, SEQ ID NO: 25; not restated for the peptide used in the assays)); experiment: cell-based or functional assay
T1 peptide: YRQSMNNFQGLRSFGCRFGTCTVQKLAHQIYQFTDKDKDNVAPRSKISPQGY

[2] = target: T1, human Adrenomedullin (hADM 1-52); experiment: SPR, Biacore 2000; antibody captured via anti-mouse Fc on CM5, Adrenomedullin as analyte
Method: Reversible immobilization of the antibodies was performed using an anti-mouse Fc antibody covalently coupled in high density to a CM5 sensor surface according to the manufacturer's instructions (mouse antibody capture kit; GE Healthcare).

B1: NT-H (antibody, V domains shown)
VH: QVQLQQSGAELMKPGASVKISCKATGYTFSRYWIEWVKQRPGHGLEWIGEILPGSGSTNYNEKFKGKATITADTSSNTAYMQLSSLTSEDSAVYYCTEGYEYDGFDYWGQGTTLTVSS
VL: DVLLSQTPLSLPVSLGDQATISCRSSQSIVYSNGNTYLEWYLQKPGQSPKLLIYRVSNRFSGVPDRFSGSGSGTDFTLKISRVEAEDLGVYYCFQGSHIPYTFGGGTKLEIK
notes: also called antibody NT-H; NT-H antibody
IC50 (read off the curve; half of the partial plateau), in the presence of 5.63 nM hADM [1]: ~2 µg/mL | Kd [2]: 5.9 nM
